According to patent US6790630 (NEW ENGLAND BIOLABS, dated 2004):

T1: Peanut agglutinin (PNA), biotinylated (UniProt P02872 24-259)
T1 construct: Lectin
T1 sequence: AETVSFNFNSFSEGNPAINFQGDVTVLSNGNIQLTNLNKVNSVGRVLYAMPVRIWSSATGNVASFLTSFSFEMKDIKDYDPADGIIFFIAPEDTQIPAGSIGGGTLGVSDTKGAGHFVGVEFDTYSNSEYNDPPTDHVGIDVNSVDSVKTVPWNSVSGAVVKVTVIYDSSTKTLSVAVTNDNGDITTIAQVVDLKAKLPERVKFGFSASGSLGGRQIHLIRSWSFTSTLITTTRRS

T2: Erythrina cristagalli lectin (ECL), biotinylated (Erythrina cristagalli, UniProt P83410 1-239)
T2 construct: Lectin
T2 sequence: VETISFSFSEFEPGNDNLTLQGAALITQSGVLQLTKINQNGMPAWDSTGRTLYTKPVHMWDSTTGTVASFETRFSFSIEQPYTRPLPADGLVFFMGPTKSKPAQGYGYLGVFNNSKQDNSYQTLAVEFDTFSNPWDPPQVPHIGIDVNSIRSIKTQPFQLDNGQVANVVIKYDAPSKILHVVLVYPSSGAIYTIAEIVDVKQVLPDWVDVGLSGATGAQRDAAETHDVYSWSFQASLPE

B1: DiT33, native 31-33 kDa glycoprotein of Dirofilaria immitis (other)
chain: SVINRHNKRFAGFSVAGIGGTAGCVVVDNKLFANSFYLRDLTTEEQRELAQYVEDSNQYKEEVKTSLEERRKGWQLARHGEKDAKVLSSLAEKKFPKPPKKPSFCSAGDTTQYYFDGCMVQNNKIYVGRMYVRDLTSDEINQLKTFDAKMTAYQKYLSSSIQQQVDSLFGDKSNLFNLFTDTRHETSSQPSDATTISTTTQAPVEPPETPHFCIAIY
notes: also called doublet of 31 and 33 kDa; D. immitis homolog of Ov33
B2: Ov33, native 31-33 kDa antigen of Onchocerca volvulus adult worms (other)
chain: GVVKRYNKRFAGFNVAGIGGNAGCVVVDNKLFANSFFLRELTTEEQRELAQYIEDSNRYKEEVKESLEERRKGWQLARDGKEDSKVLSALAEKKLPKPPKKPSFCSAGDTTQYYFDGCMVQNDKIYVGRAYVRDLTPDEVTQLKTFDAKMTAYQKYLSSTIQKQVDSLFGEKSNLFNLFADTRTEATSQASDDATAGATTTQAPVEAPEPPHFCVAIY

Assays:
[1] = molecular target: T3, Soybean agglutinin (SBA), biotinylated (UniProt P05046 33-285); assay: lectin blot of affinity purified antigen
T3 construct: Lectin
T3 sequence (P05046 33-285 limits assumed): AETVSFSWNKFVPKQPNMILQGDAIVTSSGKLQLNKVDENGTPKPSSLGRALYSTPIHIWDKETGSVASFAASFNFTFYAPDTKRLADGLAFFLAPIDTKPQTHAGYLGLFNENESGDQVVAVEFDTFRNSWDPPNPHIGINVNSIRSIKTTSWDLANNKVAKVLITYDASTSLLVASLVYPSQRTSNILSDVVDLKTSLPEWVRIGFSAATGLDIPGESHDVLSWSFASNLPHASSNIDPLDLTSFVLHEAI

[2] = molecular target: T1, Peanut agglutinin (PNA), biotinylated; assay: lectin blot of affinity purified antigen
[3] = molecular target: T2, Erythrina cristagalli lectin (ECL), …; assay: lectin blot of affinity purified antigen
[4] = molecular target: T4, Concanavilin A (Con-A), biotinylated (UniProt P02866 30-281); assay: lectin blot of affinity purified antigen
T4 construct: Lectin

[5] = molecular target: T5, Phaseolus vulgaris erthroagglutinin (PHA-E), biotinylated (Phaseolus vulgaris, UniProt P05088 22-275); assay: lectin blot of affinity purified antigen
T5 construct: Lectin

[6] = molecular target: B2; assay: lectin blot of affinity purified antigen
[7] = molecular target: B1; assay: lectin blot of affinity purified antigen
[8] = molecular target: B2; assay: lectin blot, biotinylated lectin 20 µg/ml
[9] = molecular target: B1; assay: lectin blot, biotinylated lectin 20 µg/ml

Binder | binding result [1] | binding result [2] | binding result [3] | binding result [4] | binding result [5] | binding result [6] | binding result [7] | binding result [8] | binding result [9]
B1 | no binding (tested: 20 µg/ml) | no binding (tested: 20 µg/ml) | no binding (tested: 20 µg/ml) | no binding (tested: 20 µg/ml) | no binding (tested: 20 µg/ml) | – | – | – | –
Wheat germ agglutinin (WGA), biotinylated (other, Lectin) QRCGEQGSNMECPNNLCCSQYGYCGMGGDYCGKGCQNGACWTSKRCGSQAGGATCTNNQCCSQYGYCGFGAEYCGAGCQGGPCRADIKCGSQAGGKLCPNNLCCSQWGFCGLGSEFCGGGCQSGACSTDKPCGKDAGGRVCTNNYCCSKWGSCGIGPGYCGAGCQSGGCDG | – | – | – | – | – | no binding (tested: 20 µg/ml) | no binding (tested: 20 µg/ml) | – | –
B2 | no binding (tested: 20 µg/ml) | no binding (tested: 20 µg/ml) | no binding (tested: 20 µg/ml) | no binding (tested: 20 µg/ml) | no binding (tested: 20 µg/ml) | – | – | – | –
Artpocarpus integrifolia (jacalin), biotinylated (other) chain 1: GKAFDDGAFTGIREINLSYNKETAIGDFQVVYDLNGSPYVGQNHKSFITGFTPVKISLDFPSEYIMEVSGYTGNVSGYVVVRSLTFKTNKKTYGPYGVTSGTPFNLPIENGLIVGFKGSIGYWLDYFSMYLSL chain 2: NEQSGKSQTVIVGSWGAKVS | – | – | – | – | – | – | – | binds | binds
